Results on two molecules are retold here after US20110318846, “Aptamer and detection method for C-reactive protein” (National Cheng-Kung University, published 2011).

The target of series [1] is T1, C-reactive protein (CRP) (Homo sapiens, UniProt P02741 P02741:19-224).
T1 sequence: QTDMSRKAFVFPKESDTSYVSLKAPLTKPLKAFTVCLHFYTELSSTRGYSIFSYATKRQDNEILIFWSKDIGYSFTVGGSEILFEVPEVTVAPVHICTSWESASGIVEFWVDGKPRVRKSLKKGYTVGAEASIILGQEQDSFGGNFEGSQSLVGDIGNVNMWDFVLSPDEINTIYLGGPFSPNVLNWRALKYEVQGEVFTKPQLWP
In words: SPR; Biacore X, SA chip with biotinylated aptamer, 10 mM Tris, 50 mM NaCl, 2 mM CaCl2, 25 C, 1:1 Langmuir. To be noted: immobilised on Dynabeads M-450 Epoxy for SELEX, in solution for SPR; chain copies: 5 inferred (pentamer). As for the experimental part: Then, 90 μL of the aptamer solution A being cooled to 4° C. is aliquoted, and the aptamer solution A is injected to pass the surface of the SA sensor chip, so that the aptamers A in the aptamer solution A is coated on the surface of the SA sensor chip. Later, 90 μL of the reverse primer solution is injected and passes through the surface of the SA sensor chip for blocking. Subsequently, 5×SSCT buffer is used to wash the surface of the SA sensor chip until the SPR response reaches a balance.
Five cycles as described in the following are then performed. Here, each cycle includes: (1) injecting 90 μL of the testing solution to pass through the surface of the SA sensor chip; (2) washing the surface of the SA sensor chip by using 90 μL of a washing buffer C (10 mM Tris buffer containing 50 mM NaCl and 2 mM CaCl₂); (3) recording the SPR response of the SA sensor chip for 5 min; and (4) injecting 90 μL of 100 mM NaOH to pass the surface of the SA sensor chip, so that the surface of the SA sensor chip is regenerated. The testing solutions used in the five cycles are washing buffers C respectively having a CRP concentration of 0.01, 0.05, 0.1, and 0.5 mg/L.
FIG. 4 is a SPR response measured under different CRP concentrations detected by the SA sensor chip coated with aptamers A along with time in the Biacore X system. […]
(In general: Surface plasmon resonance follows binding to a sensor surface in real time, without labels.)

Series [2] has as its target T1, C-reactive protein (CRP). Kind of series: competition; PCR product 3; CRP-coated tube, competition with free CRP, PCR readout, 25 C. To be noted: immobilised on Dynabeads M-450 Epoxy for SELEX, in solution for SPR; chain copies: 5 inferred (pentamer).

B1: aptamer A (ssDNA)
DNA: GGCAGGAAGACAAACACGATGGGGGGGTATGATTTGATGTGGTTGTTGCATGATCGTGGTCTGTGGTGCTGT
modifications: 5'-biotin (SPR and bead assay)
For orientation: Kd means the constant that tells how readily two partners part at equilibrium. Read a low Kd as a tighter complex. In the series with C-reactive protein (CRP) [1], B1 gave a dissociation constant Kd of 3.51 nM.

B2: aptamer B (ssDNA)
DNA: GGCAGGAAGACAAACACACAAGCGGGTGGGTGTGTACTATTGCAGTATCTATTCTGTGGTCTGTGGTGCTGT
B2: the binding result with C-reactive protein (CRP) [2] is “binds”.
